Reference: patent US20040137580A1
Each block holds one molecule with its values, some of them ahead of it.

Tests used:
[1] = biological target: PSGL1/mIgG2b fusion protein produced in COS-7 m6 cells without cotransfection of the α1,3 GT cDNA (human; mouse) (UniProt Q14242); test: depletion of COS supernatant on beads, remaining fusion protein by anti-mouse IgG Fc sandwich ELISA
[2] = biological target: PSGL-1/mIgG2b made in CHO-K1 clone 5L4-1 (with porcine α1,3GalT) (human; mouse) (UniProt Q14242); test: sandwich ELISA, fusion protein captured by goat anti-mouse IgG Fc, detected with peroxidase-conjugated lectin or anti-mouse IgG Fc
[3] = biological target: PSGL-1/mIgG2b made in CHO-K1 clone C2-1-9 (with porcine α1,3GalT and C2 GnT1) (human; mouse) (UniProt Q14242); test: as above
[4] = biological target: PSGL-1/mIgG2b made in 293T clone 14 (with porcine α1,3GalT) (human; mouse) (UniProt Q14242); test: as above
[5] = biological target: PSGL-1/mIgG2b made in COS7 m6 clone 5I (with porcine α1,3GalT) (human; mouse) (UniProt Q14242); test: as above
[6] = biological target: anti-pig reactive antibodies of human blood group AB serum; test: cell-based or functional assay

amount of PSGL1/mIgG2b absorbed onto 50 µl packed beads from 2 ml of supernatant [1]: 260 ng | amount of PSGL1/mIgG2b absorbed onto 50 µl packed beads from 4 ml of supernatant [1]: 290 ng | amount of PSGL1/mIgG2b absorbed onto 50 µl packed beads from 8 ml of supernatant [1]: 360 ng
Molecule: goat anti-mouse IgG agarose beads (A-6531, Sigma) (antibody)

fold increase in the relative O.D. (GSA-reactivity/anti-mouse IgG reactivity) against PSGL-1/mIgG2b made in CHO without the α1,3GalT [2]: 1.8 fold | fold increase of α-Gal epitope density (relative O.D. GSA-reactivity/anti-mouse IgG reactivity) against PSGL-1/mIgG2b made in CHO-K1 cells without the α1,3GalT [3]: 13 fold | fold increase of α-Gal epitope density (relative O.D. GSA-reactivity/anti-mouse IgG reactivity) against PSGL-1/mIgG2b made with the α1,3GalT alone [3]: 7.4 fold | fold increase in the relative O.D. (GSA-reactivity/anti-mouse IgG reactivity) against PSGL-1/mIgG2b made in 293T without the α1,3GalT [4]: 3.1 fold | fold increase in the relative O.D. (GSA-reactivity/anti-mouse IgG reactivity) against PSGL-1/mIgG2b made in COS without the α1,3GalT [5]: 5.3 fold
Molecule: peroxidase-conjugated Bandereia simplicifolia isolectin B4 (L-5391, Sigma)

B1: PSGL-1/mIgG2b made in COS7 m6 clone 5I (with porcine α1,3GalT) (Fc fusion, human, UniProt Q14242 18-320, looked up, not shown: a dimerising Fc or GST)
chain: LQLWDTWADEAEKALGPLLARDRRQATEYEYLDYDFLPETEPPEMLRNSTDTTPLTGPGTPESTTVEPAARRSTGLDAGGAVTELTTELANMGNLSTDSAAMEIQTTQPAATEAQTTQPVPTEAQTTPLAATEAQTTRLTATEAQTTPLAATEAQTTPPAATEAQTTQPTGLEAQTTAPAAMEAQTTAPAAMEAQTTPPAAMEAQTTQTTAMEAQTTAPEATEAQTTQPTATEAQTTPLAAMEALSTEPSATEALSMEPTTKRGLFIPFSVSSVTHKGIPMAASNLSVNYPVGAPDHISVKQC
modifications: α-Gal substituted glycans (COS7 m6 cells co-expressing porcine α1,3GalT)
PAEC cytotoxicity of blood group AB serum after adsorption [6]: 12% | amount of adsorber needed to reduce the PAEC cytotoxicity of human AB serum to 40% of maximum, against CHO cell-made PSGL-1/mIgG2b [6]: 16 times less

B2: PSGL-1/mIgG2b made in CHO-K1 clone C2-1-9 (with porcine α1,3GalT and C2 GnT1) (Fc fusion, human, UniProt Q14242 18-320, looked up, not shown: a dimerising Fc or GST)
chain: B1 chain
modifications: core 2 branched O-glycans with terminal Galα1,3Gal (Hex-HexNol-HexN-Hex-Hex; NeuAc-Hex-HexNol-HexN-Hex-Hex; NeuGc-Hex-HexNol-HexN-Hex-Hex)
amount of adsorber needed to reduce the PAEC cytotoxicity of human AB serum to 40% of maximum, against PSGL-1/mIgG2b made in CHO clone 5L4-1 [6]: 10 times less

B3: PSGL-1/mIgG2b made in 293T clone 14 (with porcine α1,3GalT) (Fc fusion, human, UniProt Q14242 18-320, looked up, not shown: a dimerising Fc or GST)
chain: B1 chain
modifications: α-Gal substituted glycans (293T cells co-expressing porcine α1,3GalT)
PAEC cytotoxicity of blood group AB serum after adsorption [6]: 25% | amount of adsorber needed to reduce the PAEC cytotoxicity of human AB serum to 40% of maximum, against CHO cell-made PSGL-1/mIgG2b [6]: 4 times less

B4: PSGL-1/mIgG2b made in CHO-K1 clone 5L4-1 (with porcine α1,3GalT) (Fc fusion, human, UniProt Q14242 18-320, looked up, not shown: a dimerising Fc or GST)
chain: B1 chain
modifications: glycans of CHO-K1 cells co-expressing porcine α1,3GalT
amount of adsorber needed to reduce the PAEC cytotoxicity of human AB serum to 40% of maximum [6]: 9.1 µg | lowest PAEC cytotoxicity of blood group AB serum reached after adsorption [6]: > 36%
